Measured values reported in publication PMC3636079, “Determinants at the N- and C-termini of Gα12 required for activation of Rho-mediated signaling” (Journal of Molecular Signaling, 2013).

B1: myc-tagged Gα12 Gln^229Leu (myc-Gα12^QL) [not stated] / GST fusion of protein phosphatase-5 [not stated] (parent)
chain 1: MSGVVRTLSRCLLPAEAGARERRAGAARDAEREARRRSRDIDALLARERRAVRRLVKILLLGAGESGKSTFLKQMRIIHGREFDQKALLEFRDTIFDNILKGSRVLVDARDKLGIPWQHSENEKHGMFLMAFENKAGLPVEPATFQLYVPALSALWRDSGIREAFSRRSEFQLGESVKYFLDNLDRIGQLNYFPSKQDILLARKATKGIVEHDFVIKKIPFKMVDVGGLRSQRQKWFQCFDGITSILFMVSSSEYDQVLMEDRRTNRLVESMNIFETIVNNKLFFNVSIILFLNKMDLLVEKVKSVSIKKHFPDFKGDPHRLEDVQRYLVQCFDRKRRNRSKPLFHHFTTAIDTENIRFVFHAVKDTILQENLKDIMLQ
chain 2: MAMAEGERTECAEPPRDEPPADGALKRAEELKTQANDYFKAKDYENAIKFYSQAIELNPSNAIYYGNRSLAYLRTECYGYALGDATRAIELDKKYIKGYYRRAASNMALGKFRAALRDYETVVKVKPHDKDAKMKYQECNKIVKQKAFERAIAGDEHKRSVVDSLDIESMTIEDEYSGPKLEDGKVTISFMKELMQWYKDQKKLHRKCAYQILVQVKEVLSKLSTLVETTLKETEKITVCGDTHGQFYDLLNIFELNGLPSETNPYIFNGDFVDRGSFSVEVILTLFGFKLLYPDHFHLLRGNHETDNMNQIYGFEGEVKAKYTAQMYELFSEVFEWLPLAQCINGKVLIMHGGLFSEDGVTLDDIRKIERNRQPPDSGPMCDLLWSDPQPQNGRSISKRGVSCQFGPDVTKAFLEENNLDYIIRSHEVKAEGYEVAHGGRCVTVFSAPNYCDQMGNKASYIHLQGSDLRPQFHQFTAVPHPNVKPMAYANTLLQLGMM

Variants of: B1
Experiment: GST pull-down (co-precipitation), immunoblot pulldown:load ratio
Details: with GST fusion of protein phosphatase-5; grade: ++; mean of two or more trials; parent: 100

Percent of parent (% of myc-Gα12QL pulldown:load ratio), > 60:
chain 1 H346N H347A F348A T349I T350R A351S
chain 1 R28N D29A E31I E33S
chain 1 V52N R53A R54A L55I V56R K57S
chain 1 I352N D353A T354A E355I N356R I357S
chain 1 K316N G317A D318A P319I H320R R321S
chain 1 R358N F359A V360A F361I H362R A363S
chain 1 R340N S341A K342A P343I L344R F345S
